Measured values published in paper PMC6764859 (Nature chemical biology, 2019).
One block for each binder: values may come before it.

Legend:
[1] = molecular target: PTCH1_(ECD1), biotinylated (BLI) (human, UniProt Q13635, biotin on the BirA-recognition sequence); experiment: BLI
[2] = molecular target: PTCH1_(ECD2), biotinylated (BLI) (human, UniProt Q13635, biotin on the BirA-recognition sequence); experiment: BLI
Sequence of PTCH1_(ECD2), biotinylated (BLI) (Q13635 772-1023): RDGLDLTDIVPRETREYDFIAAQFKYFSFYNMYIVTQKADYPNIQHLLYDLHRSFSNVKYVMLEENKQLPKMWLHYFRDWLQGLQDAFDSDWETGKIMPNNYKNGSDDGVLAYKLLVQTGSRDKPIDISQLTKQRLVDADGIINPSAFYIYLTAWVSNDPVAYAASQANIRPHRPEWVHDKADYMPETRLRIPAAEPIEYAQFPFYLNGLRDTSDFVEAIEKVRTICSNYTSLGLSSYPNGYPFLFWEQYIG

Sequence of PTCH1_(ECD1), biotinylated (BLI) (Q13635 139-428): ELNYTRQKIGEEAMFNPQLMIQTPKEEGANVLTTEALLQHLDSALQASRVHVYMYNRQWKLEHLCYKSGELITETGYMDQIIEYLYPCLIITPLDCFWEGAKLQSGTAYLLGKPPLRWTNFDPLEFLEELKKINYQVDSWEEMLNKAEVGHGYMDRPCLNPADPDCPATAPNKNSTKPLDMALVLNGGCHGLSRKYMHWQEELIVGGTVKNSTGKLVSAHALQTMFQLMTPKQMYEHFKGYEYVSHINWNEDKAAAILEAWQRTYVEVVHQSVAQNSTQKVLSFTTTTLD

- binding result [1]: binds
B1: NB64 (VHH)
VHH: QVQLQESGGGLVQPGGSLRLSCAASGSGNSINVMGWYRQAPGKPRELVAEITSSGTTNYADSVKGRFSISRDNAKNTVPLQMNSLKPEDTAIYYCSAVLVRFGGLRRSYWGQGTQVTVSS

- binding result [2]: binds
B2: NB75 (VHH)
VHH: QVQLQESGGGLVQAGDSLTLSCAASGRTFSSYTMGWFRQAPGKERDFIAGITSTGSSTYYADSVKGRFTISRDNAKNTVYLQMNSLKPEDTADYYCARKVAGGSYYQKDKYDYWGQGTQVTVSS
